± gives the uncertainty stated by the source.
Experiment: amyloid nucleation score (Sup35N fusion, yeast selection) (log enrichment); library NNK1; higher = more nucleation; inactive = no reads after selection
Procedure, shortened: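 The nucleation score is a DiMSum log enrichment of output over input reads, centred on the mode score of non-aggregating sequences. Sequences under 100 input reads were excluded, and reads came from Illumina sequencing of plasmid inserts. Psi-negative yeast expressing Sup35N fused to peptides of 20 random codons were induced with 100 μM copper sulfate for 24 hours and grown 7 days at 30°C on medium lacking adenine and uracil. Random libraries had three technical output replicates.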

INALYRFGWKARFSMSC and INFCRSPMPWNGSALVNLMV are within error of each other in amyloid nucleation score: 0.282 ± 0.45 for the first, -0.014 ± 0.53 for the second.

Going from INRHVAMWEDQVLSRLAMWF to INSRAIRLAKGDSVSWSSHG, the amyloid nucleation score falls from 2.53 ± 0.13 to -0.244 ± 0.32.

Compared with INTYWAGCIFCRMFGESRLK, INVFNCCWRLIFVLEV is lower in amyloid nucleation score: 7.253 ± 0.069 for the first, 2.72 ± 0.14 for the second.

Compared with INVIYNICFQVSW, IPDNVVF is lower in amyloid nucleation score: 8.413 ± 0.052 for the first, -1.27 ± 1.4 for the second.

Going from IPENCSGLYWLGNYVPSIAD to IPKCMYGRDRICLMLVAFEN, the amyloid nucleation score rises from -0.439 ± 0.34 to 1.79 ± 0.28.

IPRYQSGLWGCCVY and IQAKKDPTAESQRGCC are within error of each other in amyloid nucleation score: 0.489 ± 0.58 for the first, 0.197 ± 0.51 for the second.

IQESVMLVLVDGGVISARL and IQFIDRPDHIARRLVWFRIG are within error of each other in amyloid nucleation score: 0.106 ± 0.3 for the first, 0.351 ± 0.27 for the second.

Compared with IQLILSSAEFFSLAGSREYR, IQYELMRMACSRNFIIAEFF is lower in amyloid nucleation score: 2.43 ± 0.22 for the first, 0.2 ± 0.72 for the second.

IRFHCLHLVAVLTKTRVFEA and IRGCTAC are within error of each other in amyloid nucleation score: 0.064 ± 0.95 for the first, 0.958 ± 0.76 for the second.

IRHRCSLMICFPAHTRGSAQ and IRKGSFPD are within error of each other in amyloid nucleation score: -0.219 ± 0.68 for the first, -0.841 ± 0.82 for the second.

IRLGHIQVFVSGRFENRLIF and IRLNVFFNMELMRLDLLWR are within error of each other in amyloid nucleation score: 0.257 ± 0.56 for the first, 0.311 ± 0.72 for the second.

Compared with IRMDSCRTFYLSLSWHIYCS, IRMLSRSLSKMSIIFHGGKG is higher in amyloid nucleation score: 0.338 ± 0.23 for the first, 1.33 ± 0.46 for the second.

Compared with IRSQKRYLCSGSLLCKVSRR, IRTNKVFASMPYDNSDTFCS is lower in amyloid nucleation score: 1.38 ± 0.51 for the first, -1.5 ± 1.9 for the second.

Compared with IRVLVSCVGYPFTCILKVWT, IRYKA is higher in amyloid nucleation score: 1.18 ± 0.97 for the first, 4.49 ± 0.11 for the second.

First: ISCTNCLKCPLYTSFRPLLC
Second: ISCWRNYLDLSSLYLFALFI
The amyloid nucleation score of the first is lower: -0.13 ± 0.44 for the first, 2.53 ± 0.077 for the second.

Going from ISDCNRMFTSLSWDMSSPLI to ISIPYICIMVFFFDAVRVDQ, the amyloid nucleation score falls from 1.75 ± 0.57 to 0.49 ± 0.34.

ISLIFHVMNDLWCIAIELGS and ISLKG are within error of each other in amyloid nucleation score: 0.183 ± 0.59 for the first, 0.655 ± 0.59 for the second.

First: ISNFVGTTMIIQGSVNTVYK
Second: ISNLWYNCCGIRPS
The amyloid nucleation score of the first is higher: 6.962 ± 0.055 for the first, 5.86 ± 0.047 for the second.

ISNVWNCGKFRSLGLFVTGQ and ISPRDHESLTNFHVRLCHMR are within error of each other in amyloid nucleation score: 0.247 ± 0.31 for the first, 0.368 ± 0.57 for the second.

ISPVGIIMYQCSAWLTRFRS and ISRISVSEEFKGCMGREWVT are within error of each other in amyloid nucleation score: 0.204 ± 0.43 for the first, 1.1 ± 0.52 for the second.

First: ISSILFLQCLSWGGNR
Second: ITDVMCMGGSTCFGNSGYTN
The amyloid nucleation score of the first is higher: 5.38 ± 0.095 for the first, 0.108 ± 0.56 for the second.

ITETSSSETMLLVVRTWEVW and ITGLVRLFC are within error of each other in amyloid nucleation score: 0.332 ± 0.63 for the first, 0.134 ± 1 for the second.

First: ITKLIVSFQGFFV
Second: ITMWMPRILRVTITYDTRG
The amyloid nucleation score of the first is higher: 4.24 ± 0.12 for the first, 0.111 ± 1.2 for the second.

Compared with ITREVSL, ITSRVQFRETHTYIMYLEAW is lower in amyloid nucleation score: 1.36 ± 0.61 for the first, 0.138 ± 0.43 for the second.

Compared with ITTIMTAVTVSPPQSMWFVS, ITVYLMALVNNVCG is higher in amyloid nucleation score: 1.96 ± 0.25 for the first, 3.38 ± 0.13 for the second.

ITYMYGYCMDYF and ITYSLSIYSSRAICLYVWGG are within error of each other in amyloid nucleation score: 0.439 ± 0.38 for the first, -0.119 ± 0.62 for the second.

First: ITYTGASR
Second: IVCSGLCHIN
The amyloid nucleation score of the first is lower: 0.295 ± 0.57 for the first, 7.08 ± 0.071 for the second.

Compared with IVDPWY, IVFFQEDGSWAEWFVGEVLT is lower in amyloid nucleation score: 2.56 ± 0.12 for the first, 0.557 ± 0.42 for the second.

First: IVGLQAVENIRNSCICLFMK
Second: IVHIHGLQAANLAASWSANL
The amyloid nucleation score of the first is higher: 4.5 ± 0.065 for the first, 2.68 ± 0.18 for the second.

IVLFSPFTW and IVMQVLTQTVMWIFYLNGSH are within error of each other in amyloid nucleation score: -0.062 ± 0.31 for the first, -0.254 ± 0.42 for the second.

First: IVMVVMSSFGINEHPPDNQN
Second: IVNSKCRFWYYINGTVIFFL
The amyloid nucleation score of the first is lower: 1.35 ± 0.27 for the first, 6.331 ± 0.059 for the second.

First: IVNVSCITNVDGGSLADSAV
Second: IVPRAFIAWIAYQGRSPYGA
The amyloid nucleation score of the first is higher: 2.48 ± 0.25 for the first, 0.619 ± 1.2 for the second.

IVQIIPGVCCA and IVSNAIIPTGEG are within error of each other in amyloid nucleation score: 0.311 ± 1.2 for the first, 0.283 ± 0.71 for the second.

Compared with IVTEVGGVVDEYARWPVGMT, IVTRWY is lower in amyloid nucleation score: 8.737 ± 0.05 for the first, -0.257 ± 0.21 for the second.

IVTSMSYNFLLKLMAGPQLR and IVVKV are within error of each other in amyloid nucleation score: 0.274 ± 0.67 for the first, -0.035 ± 0.97 for the second.

First: IVYRPLAFVAVSCSESGHSV
Second: IWALKVWLRLTYCHICFRVV
The amyloid nucleation score of the first is higher: 4.56 ± 0.087 for the first, 0.265 ± 0.58 for the second.

IWCSCAYRGVGMSTGFAIIY and IWFLHHEVKF are within error of each other in amyloid nucleation score: 1.13 ± 0.58 for the first, 0.603 ± 0.58 for the second.

IWLVQIHVSSSMPTSYPHIS and IWRFIFGFGVYVCNGMALSQ are within error of each other in amyloid nucleation score: 0.355 ± 1.4 for the first, 0.291 ± 0.53 for the second.

Compared with IWTFRYVFRIFTCSDGTMVH, IYARNIRRLTRFPDLLDLVM is higher in amyloid nucleation score: -0.108 ± 0.42 for the first, 1.47 ± 0.17 for the second.

Compared with IYASLNVEICFADLPWSTWV, IYCEEFMLEMTSRIRV is lower in amyloid nucleation score: 0.358 ± 0.81 for the first, -0.976 ± 0.47 for the second.

IYCYSYYLCSFLCVYDISKG and IYEMVGLTNVEFWYTKKYCS are within error of each other in amyloid nucleation score: -0.457 ± 0.79 for the first, -0.003 ± 0.18 for the second.

Compared with IYGDGNCIIFLMGQRP, IYGGYEK is lower in amyloid nucleation score: 6.38 ± 0.085 for the first, 0.626 ± 0.84 for the second.

With IRLLAKI the amyloid nucleation score was “inactive”.
In the case of ISTSLSTGLGKLRESWLTYH, the amyloid nucleation score is reported as “inactive”.
For IVLGYFRGIHFLGVLGMLIK, the amyloid nucleation score was “inactive”.

— the supplement of paper PMC12042874
